Measurements as given in US20070036810A1, “Cyclic amp response element activator proteins and uses related thereto” (priority 2003, published 2007).
“Also recorded” adds a separate entry of the source.

How the values were obtained:
[1] = test system: secreted IL-8 protein from HeLa cells; experiment: IL-8 Elisa assay in HeLa cells; assay type: cell-based; conditions: after transfection
Protocol: HeLa cells are transfected with DNA samples selected from the group of sequence verified and confirmed hits at 100 ng per well in 96 well plates (Costar) using the protocol described above. DNA samples designated as co-activators are co-transfected at 25 ng per well. Empty vector pCMV-Sport6 is used as a negative control. 72 hours post-transfection IL-8 content is measured in the cell growth media in prediluted aliquots corresponding to 1 to 5 μl of conditioned growth media using an IL-8 Elisa kit (Sigma) following the provided protocol. As a positive control, growth media is collected from the cells transfected with empty vector and treated with IL-1β and TNFα (R&D Systems) at 5 ng/ml and 50 ng/ml respectively for 16 hours prior to collection of the growth media for the IL-8 assay.

[2] = test system: CRE-like element of IL-8 promoter (pCREL-Luc); experiment: pCREL-Luc reporter (concatamerized CRE-like site) assay; assay type: cell-based; conditions: minimal promoter carrying concatamerized CRE-like site; data not shown
Excerpt: The pIL-8Luc reporter was constructed by insertion of the −1491 to +43 region of the human IL-8 gene into pGL3Basic vector (Promega, Inc). PCR was used to generate a wild type minimal IL-8 promoter as well as point mutants. Mutations in AP-1, C/EBP, NF-κB were as described by Wu et al. (Wu et al. J. Biol. Chem., 272:2396-2403 (1997)). The sequence of a putative CRE-like site TGACATAA was mutated to TCGATCAA. Promoter constructs carrying 6 concatamerised copies of CRE-like response element (pCREL-Luc) or 5 copies of CRE-like element TGACACAA found in human PEPCK and CAPL promoters (pCREL2-Luc) were prepared by ligating PCR amplified sequences into pTAL-Luc (BD Biosciences). All techniques were performed using conventional methods.
In order to determine if the “CRE-like element” was directly responsive to CREAP1 or MAP3K11, the ability of both genes to activate a minimal promoter carrying concatamerized CRE-like site (pCREL-Luc) was examined. In addition, we studied the effect of PMA known inducer of AP-1.

endogenous CREB1 = molecular target: T1, endogenous CREB1 (Homo sapiens, UniProt P16220); experiment: Immuno-precipitation of FLAG-tagged CREAP1 variants and Western blot against CREB in HEK293 cells; assay type: binding; conditions: M2-agarose immuno-precipitation, Western blot against CREB
T1 construct: endogenous in cells; host or cells: HEK293
T1 sequence (P16220 whole entry): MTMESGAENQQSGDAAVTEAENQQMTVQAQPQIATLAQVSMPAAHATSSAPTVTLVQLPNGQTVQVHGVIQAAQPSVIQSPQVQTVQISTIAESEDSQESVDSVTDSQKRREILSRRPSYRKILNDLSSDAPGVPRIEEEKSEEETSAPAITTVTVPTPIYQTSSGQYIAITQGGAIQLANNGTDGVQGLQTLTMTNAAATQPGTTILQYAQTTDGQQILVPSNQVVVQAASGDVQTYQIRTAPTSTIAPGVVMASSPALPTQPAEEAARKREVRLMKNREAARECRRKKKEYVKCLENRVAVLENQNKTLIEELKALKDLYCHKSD
Protocol: To determine if CREAP1 can interact directly with CREB, K1 and K5 variants of CREAP1 (see Table 1) were transfected into HEK293 cell grown in 100 mm dishes (Falcon) using Fugene6 reagent (Roche Applied Science) according to the protocol provided by the manufacturer. 40 hours after transfection, cells were scraped from the plates in PBS and lysed in 800 μl of Low Stringency buffer containing: 10 mM HEPES pH 7.6, 250 mM NaCl, 5 mM EDTA, 1 mM DTT, 0.1% NP-40 and freshly dissolved protease inhibitors. Immuno-precipitation was carried out using M2-agarose beads (Sigma). Precipitated proteins were separated on 4-20% of SDS-PAGE (Invitrogen) and transferred to nitrocellulose membrane (Invitrogen). Western blot were performed using antibody against CREB (Cell Signaling Technology). As a negative control expression construct encoding FLAG-tagged human histone deacetylase 1 (HDAC1) was used.

[3] = test system: pCRE-Luc reporter (cyclic AMP response element); experiment: pCRE-Luc reporter assay of CREAP1 deletion fragments in Hela cells; assay type: cell-based; conditions: Flag-CREAP1 deletion constructs co-transfected with pCRE-Luc in Hela cells; Dual-Glo Luciferase 40 hrs after transfection
Protocol: CREAP1 protein amino acids 1-170, 1-356, […], 1-580 and 170-650 are inserted into pFlag-CMV4 expression vector (Sigma, St. Louis, Mo.) by utilizing PCR strategy familiar to one of skill in the art. 10^4 Hela cells are split into each well of 96 well tissue culture plates. Cells are transfected 16 hours later with 100 ng of pCRE-Luc reporter construct, 30 ng of Renilla luciferase control plasmid together with 100 ng of pCMVSPORT6, pCMVSPORT-CREAP1 and different Flag-CREAP1 deletion fusion constructs respectively. Transfection is done with Fugene6 reagent (Roche Applied Biosciences) following the manufacturer's instructions. A Dual-Glo Luciferase assay (Promega) is conducted 40 hrs after transfection. Firefly luciferase counts are normalized to Renilla luciferase and plotted.
To dissect the functional domains within the CREAP1 molecule, CREAP1 protein fragments of amino acids 1-170, 1-356, 1-494, 1-580 and 170-650 were subcloned into pFlag-CMV4 vector by utilizing PCR based strategy and tested for function in a Dual Glo Luciferase assay as described above.

association with endogenous CREB1 (endogenous CREB1)	Molecule	accumulation of secreted IL-8 protein [1]	activation of pCREL-Luc [2]	Activity [3]
–	MAP3K11: Mitogen-Activated Protein Kinase Kinase Kinase 11 expression construct, AP-1 activator (protein, UniProt Q16584 1-847, looked up) Mitogen-activated protein …: MEPLKSLFLKSPLGSWNGSGSGGGGGGGGGRPEGSPKAAGYANPVWTALFDYEPSGQDELALRKGDRVEVLSRDAAISGDEGWWAGQVGGQVGIFPSNYVSRGGGPPPCEVASFQELRLEEVIGIGGFGKVYRGSWRGELVAVKAARQDPDEDISVTAESVRQEARLFAMLAHPNIIALKAVCLEEPNLCLVMEYAAGGPLSRALAGRRVPPHVLVNWAVQIARGMHYLHCEALVPVIHRDLKSNNILLLQPIESDDMEHKTLKITDFGLAREWHKTTQMSAAGTYAWMAPEVIKASTFSKGSDVWSFGVLLWELLTGEVPYRGIDCLAVAYGVAVNKLTLPIPSTCPEPFAQLMADCWAQDPHRRPDFASILQQLEALEAQVLREMPRDSFHSMQEGWKREIQGLFDELRAKEKELLSREEELTRAAREQRSQAEQLRRREHLLAQWELEVFERELTLLLQQVDRERPHVRRRRGTFKRSKLRARDGGERISMPLDFKHRITVQASPGLDRRRNVFEVGPGDSPTFPRFRAIQLEPAEPGQAWGRQSPRRLEDSSNGERRACWAWGPSSPKPGEAQNGRRRSRMDEATWYLDSDDSSPLGSPSTPPALNGNPPRPSLEPEEPKRPVPAERGSSSGTPKLIQRALLRGTALLASLGLGRDLQPPGGPGRERGESPTTPPTPTPAPCPTEPPPSPLICFSLKTPDSPPTPAPLLLDLGIPVGQRSAKSPRREEEPRGGTVSPPPGTSRSAPGTPGTPRSPPLGLISRPRPSPLRSRIDPWSFVSAGPRPSPLPSPQPAPRRAPWTLFPDSDPFWDSPPANPFQGGPQDCRAQTKDMGAQAPWVPEAGP	induced small increases	neither by MAP3K11	–
associated with endogenous CREB1	K1: CREAP1 fragment, amino acids 1-170, SEQ ID NO 32, Flag fusion (protein, Flag tag; human) MATSNNPRKFSEKIALHNQKQAEETAAFEEVMKDLSLTRAARLQLQKSQYLQLGPSRGQYYGGSLPNVNQIGSGTMDLPFQPSGFLGEALAAAPVSLTPFQSSGLDTSRTTRHHGLVDRVYRERGRLGSPHRRPLSVDKHGRQADSCPYGTMYLSPPADTSWRRTNSDSA	–	–	not sufficient for its function; also recorded: Inactive
